B1: Proto-oncogene tyrosine-protein kinase LCK (Mus musculus), P06240 (parent)
chain: MGCVCSSNPEDDWMENIDVCENCHYPIVPLDSKISLPIRNGSEVRDPLVTYEGSLPPASPLQDNLVIALHSYEPSHDGDLGFEKGEQLRILEQSGEWWKAQSLTTGQEGFIPFNFVAKANSLEPEPWFFKNLSRKDAERQLLAPGNTHGSFLIRESESTAGSFSLSVRDFDQNQGEVVKHYKIRNLDNGGFYISPRITFPGLHDLVRHYTNASDGLCTKLSRPCQTQKPQKPWWEDEWEVPRETLKLVERLGAGQFGEVWMGYYNGHTKVAVKSLKQGSMSPDAFLAEANLMKQLQHPRLVRLYAVVTQEPIYIITEYMENGSLVDFLKTPSGIKLNVNKLLDMAAQIAEGMAFIEEQNYIHRDLRAANILVSDTLSCKIADFGLARLIEDNEYTAREGAKFPIKWTAPEAINYGTFTIKSDVWSFGILLTEIVTHGRIPYPGMTNPEVIQNLERGYRMVRPDNCPEELYHLMMLCWKERPEDRPTFDYLRSVLDDFFTATEGQYQPQP

Variants of: B1
Settings: with cd4_mouse Cd4, P06332
Sequence of cd4_mouse Cd4, P06332 (P06332 whole entry): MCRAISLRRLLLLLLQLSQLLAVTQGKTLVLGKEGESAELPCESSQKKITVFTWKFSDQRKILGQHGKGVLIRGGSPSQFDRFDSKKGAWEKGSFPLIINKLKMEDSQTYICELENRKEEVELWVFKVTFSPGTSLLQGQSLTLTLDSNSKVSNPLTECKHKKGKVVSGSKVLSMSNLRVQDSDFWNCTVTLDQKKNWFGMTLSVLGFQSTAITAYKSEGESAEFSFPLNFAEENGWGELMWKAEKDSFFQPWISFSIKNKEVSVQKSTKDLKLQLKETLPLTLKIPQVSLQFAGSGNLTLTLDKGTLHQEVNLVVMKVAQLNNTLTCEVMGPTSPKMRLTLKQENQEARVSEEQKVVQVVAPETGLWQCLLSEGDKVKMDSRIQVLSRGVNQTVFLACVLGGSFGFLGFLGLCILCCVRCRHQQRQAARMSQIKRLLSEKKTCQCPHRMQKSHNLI

Variant | effect of a mutation on the interaction
C20A | decreasing interaction
